Test results: publication PMC2760636 (The Journal of urology, 2009)

B1: PAP_(133-152) (peptide)
peptide: NPILLWQPIPVHTVPLSEDQ
B2: PAP_(173-192) (peptide)
peptide: KSEEFQKRLHPYKDFIATLG

Columns and labels:
[1] = tested on: men with chronic prostatitis/chronic pelvic pain syndrome; settings: CP/CPPS; cited from earlier work
CD4 lymphocytes = settings: CP/CPPS; cited from earlier work
[2] = tested on: CD4 and CD8 T cells from men with GP; settings: men with granulomatous prostatitis; cited from earlier work
HLA-DR DRB1*0301 (human) = assay: radioligand binding
HLA-DR DRB1*0401 (human) = assay: radioligand binding
HLA-DR DRB1*0404 (human) = assay: radioligand binding
HLA-DR DRB1*0405 (human) = assay: radioligand binding
HLA-DR DRB1*0901 (human) = assay: radioligand binding
HLA-DR DRB1*1101 (human) = assay: radioligand binding
HLA-DR DRB1*1302 (human) = assay: radioligand binding
HLA-DR DRB1*1501 (human) = assay: radioligand binding
HLA-DR DRB4*0101 (human) = assay: radioligand binding
HLA-DR DRB5*0101 (human) = assay: radioligand binding
HLA-DR DRB1*0101 (human) = assay: radioligand binding
HLA-DR DRB1*0701 (human) = assay: radioligand binding
HLA-DR DRB1*0802 (human) = assay: radioligand binding

Molecule | improvement of symptoms versus placebo (in words) [1] | recognition by CD4 lymphocytes (in words) (CD4 lymphocytes) | recognition by CD4 and CD8 T cells in GP (in words) [2] | IC50 (HLA-DR DRB1*0301 (human)) | IC50 (HLA-DR DRB1*0401 (human)) | IC50 (HLA-DR DRB1*0404 (human)) | IC50 (HLA-DR DRB1*0405 (human)) | IC50 (HLA-DR DRB1*0901 (human)) | IC50 (HLA-DR DRB1*1101 (human)) | IC50 (HLA-DR DRB1*1302 (human)) | IC50 (HLA-DR DRB1*1501 (human)) | IC50 (HLA-DR DRB4*0101 (human)) | IC50 (HLA-DR DRB5*0101 (human)) | IC50 (HLA-DR DRB1*0101 (human)) | IC50 (HLA-DR DRB1*0701 (human)) | IC50 (HLA-DR DRB1*0802 (human))
O=C(O)c1cn(C2CC2)c2cc(N3CCNCC3)c(F)cc2c1=O [ciprofloxacin] | no more effective than placebo at improving symptoms | – | – | – | – | – | – | – | – | – | – | – | – | – | – | –
PSA: prostate specific antigen, normal self prostatic protein | – | can be recognized by CD4 lymphocytes | CD4 and CD8 T cells from men with GP can recognize PSA | – | – | – | – | – | – | – | – | – | – | – | – | –
PSA_(171-190) (peptide) | – | – | – | 961 nM | 117 nM | 219 nM | 719 nM | > 20000 nM | > 20000 nM | 997 nM | 351 nM | 880 nM | > 20000 nM | – | – | –
PSA_(221-240) (peptide) | – | – | – | > 20000 nM | 93 nM | 3.3 nM | 67 nM | 786 nM | – | > 20000 nM | 25 nM | – | – | 108 nM | 428 nM | 646 nM
B1 | – | – | – | > 20000 nM | 39 nM | 28 nM | 164 nM | – | 964 nM | 339 nM | 1.5 nM | 82 nM | – | 25 nM | – | –
B2 | – | – | – | > 20000 nM | 296 nM | 374 nM | 211 nM | 93 nM | 28 nM | > 20000 nM | 4 nM | – | 24 nM | 25 nM | 132 nM | –
